The values below come from patent US20240117018A1.

Holding throughout (experiment): cell-based or functional assay
Assay [1] has as its target HIV-1 Env of pseudovirus T250-4 (HIV-1).
Assay [2] concerns the target HIV-1 Env of pseudovirus CNE8 (HIV-1).
In assay [3] the target is HIV-1 Env of pseudovirus 0260.v5.c36 (HIV-1).
The target of assay [4] is HIV-1 Env of pseudovirus C2101.c01 (HIV-1).
Assay [5] has as its target HIV-1 Env of pseudovirus 3365.v2.c2 (HIV-1).
The target in assay [6] is HIV-1 Env of pseudovirus 3415.v1.c1 (HIV-1).

In the case of N49P9 (antibody), the neutralization IC50 in assay [1] is over 50 µg/mL; in assay [2], 0.056 µg/mL; in assay [3], 0.466 µg/mL; in assay [4] it was 0.051 µg/mL; in assay [5], 0.059 µg/mL; in assay [6], 0.137 µg/mL. For the same substance, the neutralization IC80 in assay [1] is over 50 µg/mL; in assay [2] it was 0.26 µg/mL; in assay [3], 1.85 µg/mL; in assay [4], 0.209 µg/mL; in assay [5], 0.198 µg/mL; in assay [6], 0.502 µg/mL. The neutralization MPI in assay [1] was found to be 25; in assay [2] it was 100; in assay [3], 100; in assay [4] it was 100; in assay [5] it was 100; in assay [6], 100.

As for 10-1074 (antibody), the IC50 neutralization (TZM.bl) in assay [2] and in assay [4] was over 50 µg/mL each time. Besides, the IC80 neutralization (TZM.bl) in assay [2] and in assay [4] was over 50 µg/mL in each case.

Regarding PG9 (antibody), in assay [4], the IC50 neutralization (TZM.bl) came out at 0.034 µg/mL and the IC80 neutralization (TZM.bl) amounted to 0.099 µg/mL.

As to N49P9.1 (antibody), the neutralization IC50 is over 50 µg/mL in assay [1]; 0.228 µg/mL in assay [2]; 0.519 µg/mL in assay [3]; 0.085 µg/mL in assay [4]; 0.055 µg/mL in assay [5]; 0.21 µg/mL in assay [6]. For the same substance, the neutralization IC80 in assay [1] was over 50 µg/mL; in assay [2], 0.921 µg/mL; in assay [3] it was 0.151 µg/mL; in assay [4], 0.227 µg/mL; in assay [5] it was 0.725 µg/mL; in assay [6] it was 1.37 µg/mL. In addition, the neutralization MPI in assay [1] turned out to be 7; in assay [2], 100; in assay [3], 100; in assay [4] it was 100; in assay [5] it was 100; in assay [6] it was 100.

For the substance PG16 (antibody), in assay [4], the IC50 neutralization (TZM.bl) stood at 0.012 µg/mL and the IC80 neutralization (TZM.bl) was 0.238 µg/mL.

In assay [4], 10E8 (antibody) displayed an IC50 neutralization (TZM.bl) of 1.92 µg/mL and an IC80 neutralization (TZM.bl) of 8.26 µg/mL.

Take N49P19 (antibody): the neutralization IC50 in assay [1] is over 50 µg/mL; in assay [2] it was 0.772 µg/mL; in assay [3] it was 1.25 µg/mL; in assay [4] it was 0.978 µg/mL; in assay [5], 0.579 µg/mL; in assay [6], 0.462 µg/mL. In addition, the neutralization IC80 in assay [1] is over 50 µg/mL; in assay [2], 4.84 µg/mL; in assay [3], 8.52 µg/mL; in assay [4], 4.19 µg/mL; in assay [5], 2.09 µg/mL; in assay [6], 2.04 µg/mL. Moreover, the neutralization MPI is 7 in assay [1]; 97 in assay [2]; 99 in assay [3]; 100 in assay [4]; 99 in assay [5]; 100 in assay [6].
